Test [1] has as its target T1, FcγRIa extracellular domain with C-terminal His tag (human, UniProt P12314 16-292).
T1 construct: extracellular domain; expressed in FreeStyle293 cells; analyte in Biacore; also called FcgRI; 1a
Description: SPR (Biacore); He/Con_1a divided by He/Con_2b (FcγRIIb as reference). A general note: SPR reads the build-up and loss of mass on a sensor chip optically.

Test [2] has as its target T1, FcγRIa extracellular domain with …. Description: SPR (Biacore), captured antibody, FcγR as analyte; relative binding.
Test [3] concerns the target T2, FcγRIIb extracellular domain with C-terminal His tag (human, UniProt P31994 43-217).
T2 construct: extracellular domain; expressed in FreeStyle293 cells; analyte in Biacore; also called FcgRIIb; 2b
T2 sequence (looked up): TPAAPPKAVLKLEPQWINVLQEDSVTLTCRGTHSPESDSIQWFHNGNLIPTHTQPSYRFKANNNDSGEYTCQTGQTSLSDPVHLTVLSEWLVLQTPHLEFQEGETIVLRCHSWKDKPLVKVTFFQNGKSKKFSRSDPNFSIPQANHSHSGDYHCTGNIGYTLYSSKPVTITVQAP
Described as above.

The target of a further test is T3, FcγRIa (human, UniProt P12314 16-292).
T3 construct: extracellular domain; Soluble extracellular domain with C-terminal His tag, expressed in FreeStyle293 cells; analyte in Biacore; also called FcgRI; CD64; not shown: His tag attached to the C terminus
T3 sequence (P12314 16-292): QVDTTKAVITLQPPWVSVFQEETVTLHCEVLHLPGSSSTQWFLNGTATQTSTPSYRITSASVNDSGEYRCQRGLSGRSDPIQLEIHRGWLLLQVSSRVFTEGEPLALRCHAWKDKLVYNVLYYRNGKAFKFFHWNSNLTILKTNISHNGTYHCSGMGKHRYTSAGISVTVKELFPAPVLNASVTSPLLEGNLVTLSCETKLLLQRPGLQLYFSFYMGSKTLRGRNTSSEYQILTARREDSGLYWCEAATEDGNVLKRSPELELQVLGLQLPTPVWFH
Description: SPR (Biacore), antibody captured on antigen-peptide chip, FcγRIa as analyte; binding activity relative to control GpH7-A5/GpH7-B3/GpL16-k0 (HeCon Ab) x100. How it is done:
Analysis of interaction between objective antibody and the FcγR was carried out using Biacore T100 (GE Healthcare). HBS-EP+ (GE Healthcare) was used as the running buffer, and the measurement temperature was set to 25° C. Chips produced by immobilizing the antigen peptide by the amine coupling method to a Series S Sencor Chip CM5 (GE Healthcare), or alternatively, chips produced by allowing preliminarily biotinylated antigen peptides to interact with and immobilize onto a Series S Sensor Chip SA (certified) (GE Healthcare) were used. Antibodies of interest were captured onto an antigen peptide-immobilized chip, and allowed to interact to each FcγR diluted with running buffer. To regenerate and repeatedly use the chip, the antibodies captured on the chip were washed off by reacting 10 mM glycine-HCl, pH 1.5.

T1 sequence (P12314 16-292): as above

B1: GpH7-A5/GpH7-B3 variant D265_11K/GpL16-k0 (antibody, human IgG1, kappa)
heavy 1: not shown
heavy 2: not shown
light: DIVMTQSPLSLPVTPGEPASISCQASESLVHSNRNTYLHWYLQKPGQSPQLLIYKVSNRFSGVPDRFSGSGSGTDFTLKISRVEAEDVGVYYCSQNTHVPPTFGQGTKVEIERTVAAPSVFIFPPSDEQLKSGTASVVCLLNNFYPREAKVQWKVDNALQSGNSQESVTEQDSKDSTYSLSSTLTLSKADYEKHKVYACEVTHQGLSSPVTKSFNRGEC
notes: He Ab; IgG1, mutation in one H chain
Consider B1, for which, in test [1], the “He_1a/2b (Ia/IIb)” value amounted to 2.9 ratio. Also, in test [2], the He/Con_1a was 43.2 % of HeCon Ab (GpH7-A5/GpH7-B3/GpL16-k0 = 100). The He/Con_2b in test [3] is 14.9 % of HeCon Ab (GpH7-A5/GpH7-B3/GpL16-k0 = 100).

B2: GpH7-A5/GpH7-B3 variant D265_02A/GpL16-k0 (antibody, human IgG1, kappa)
heavy 1: not shown
heavy 2: not shown
light: DIVMTQSPLSLPVTPGEPASISCQASESLVHSNRNTYLHWYLQKPGQSPQLLIYKVSNRFSGVPDRFSGSGSGTDFTLKISRVEAEDVGVYYCSQNTHVPPTFGQGTKVEIERTVAAPSVFIFPPSDEQLKSGTASVVCLLNNFYPREAKVQWKVDNALQSGNSQESVTEQDSKDSTYSLSSTLTLSKADYEKHKVYACEVTHQGLSSPVTKSFNRGEC
notes: as for B1
For B2, the “He_1a/2b (Ia/IIb)” value in test [1] is 4.25 ratio. Further, the He/Con_1a in test [2] is 84.5 % of HeCon Ab (GpH7-A5/GpH7-B3/GpL16-k0 = 100). The He/Con_2b in test [3] is 19.9 % of HeCon Ab (GpH7-A5/GpH7-B3/GpL16-k0 = 100).

B3: GpH7-A5/GpH7-B3 variant Y300_20W/GpL16-k0 (heterodimerized antibody, He Ab) (antibody, human IgG1, kappa)
heavy 1: not shown
heavy 2: not shown
light: DIVMTQSPLSLPVTPGEPASISCQASESLVHSNRNTYLHWYLQKPGQSPQLLIYKVSNRFSGVPDRFSGSGSGTDFTLKISRVEAEDVGVYYCSQNTHVPPTFGQGTKVEIERTVAAPSVFIFPPSDEQLKSGTASVVCLLNNFYPREAKVQWKVDNALQSGNSQESVTEQDSKDSTYSLSSTLTLSKADYEKHKVYACEVTHQGLSSPVTKSFNRGEC
notes: Anti-glypican-3 IgG1; alteration only in the GpH7-B3 (K439E) chain; other H chain is GpH7-A5 (D356K/H435R)
Consider B3, for which the He/Con_1a with FcγRIa is 112 % of control (=100).

B4: GpH7-A5/GpH7-B3 variant D265_15Y/GpL16-k0 (antibody, human IgG1, kappa)
heavy 1: not shown
heavy 2: not shown
light: DIVMTQSPLSLPVTPGEPASISCQASESLVHSNRNTYLHWYLQKPGQSPQLLIYKVSNRFSGVPDRFSGSGSGTDFTLKISRVEAEDVGVYYCSQNTHVPPTFGQGTKVEIERTVAAPSVFIFPPSDEQLKSGTASVVCLLNNFYPREAKVQWKVDNALQSGNSQESVTEQDSKDSTYSLSSTLTLSKADYEKHKVYACEVTHQGLSSPVTKSFNRGEC
notes: as for B1
Regarding B4, the “He_1a/2b (Ia/IIb)” value in test [1] is 73.5 ratio. Moreover, in test [2], the He/Con_1a is 44.3 % of HeCon Ab (GpH7-A5/GpH7-B3/GpL16-k0 = 100). Also, the He/Con_2b in test [3] was 0.6 % of HeCon Ab (GpH7-A5/GpH7-B3/GpL16-k0 = 100).

B5: GpH7-A5/GpH7-B3 variant Y300_14T/GpL16-k0 (heterodimerized antibody, He Ab) (antibody, human IgG1, kappa)
heavy 1: not shown
heavy 2: not shown
light: DIVMTQSPLSLPVTPGEPASISCQASESLVHSNRNTYLHWYLQKPGQSPQLLIYKVSNRFSGVPDRFSGSGSGTDFTLKISRVEAEDVGVYYCSQNTHVPPTFGQGTKVEIERTVAAPSVFIFPPSDEQLKSGTASVVCLLNNFYPREAKVQWKVDNALQSGNSQESVTEQDSKDSTYSLSSTLTLSKADYEKHKVYACEVTHQGLSSPVTKSFNRGEC
notes: as for B3
Take B5: the He/Con_1a with FcγRIa is 112 % of control (=100).

B6: GpH7-A5/GpH7-B3 variant D265_08L/GpL16-k0 (antibody, human IgG1, kappa)
heavy 1: not shown
heavy 2: not shown
light: DIVMTQSPLSLPVTPGEPASISCQASESLVHSNRNTYLHWYLQKPGQSPQLLIYKVSNRFSGVPDRFSGSGSGTDFTLKISRVEAEDVGVYYCSQNTHVPPTFGQGTKVEIERTVAAPSVFIFPPSDEQLKSGTASVVCLLNNFYPREAKVQWKVDNALQSGNSQESVTEQDSKDSTYSLSSTLTLSKADYEKHKVYACEVTHQGLSSPVTKSFNRGEC
notes: as for B1
Turning to B6, the “He_1a/2b (Ia/IIb)” value in test [1] was 12.4 ratio. Further, the He/Con_1a in test [2] is 56.8 % of HeCon Ab (GpH7-A5/GpH7-B3/GpL16-k0 = 100). In test [3], the He/Con_2b is 4.6 % of HeCon Ab (GpH7-A5/GpH7-B3/GpL16-k0 = 100).

B7: GpH7-A5/GpH7-B3 variant D265_13S/GpL16-k0 (antibody, human IgG1, kappa)
heavy 1: not shown
heavy 2: not shown
light: DIVMTQSPLSLPVTPGEPASISCQASESLVHSNRNTYLHWYLQKPGQSPQLLIYKVSNRFSGVPDRFSGSGSGTDFTLKISRVEAEDVGVYYCSQNTHVPPTFGQGTKVEIERTVAAPSVFIFPPSDEQLKSGTASVVCLLNNFYPREAKVQWKVDNALQSGNSQESVTEQDSKDSTYSLSSTLTLSKADYEKHKVYACEVTHQGLSSPVTKSFNRGEC
notes: as for B1
Consider B7, for which the “He_1a/2b (Ia/IIb)” value in test [1] turned out to be 6.07 ratio. Besides, the He/Con_1a in test [2] was 68.7 % of HeCon Ab (GpH7-A5/GpH7-B3/GpL16-k0 = 100). The He/Con_2b in test [3] was 11.3 % of HeCon Ab (GpH7-A5/GpH7-B3/GpL16-k0 = 100).

B8: GpH7-A5/GpH7-B3 variant D265_07I/GpL16-k0 (antibody, human IgG1, kappa)
heavy 1: not shown
heavy 2: not shown
light: DIVMTQSPLSLPVTPGEPASISCQASESLVHSNRNTYLHWYLQKPGQSPQLLIYKVSNRFSGVPDRFSGSGSGTDFTLKISRVEAEDVGVYYCSQNTHVPPTFGQGTKVEIERTVAAPSVFIFPPSDEQLKSGTASVVCLLNNFYPREAKVQWKVDNALQSGNSQESVTEQDSKDSTYSLSSTLTLSKADYEKHKVYACEVTHQGLSSPVTKSFNRGEC
notes: as for B1
As to B8, the “He_1a/2b (Ia/IIb)” value in test [1] turned out to be 41.2 ratio. In test [2], the He/Con_1a is 54.4 % of HeCon Ab (GpH7-A5/GpH7-B3/GpL16-k0 = 100). For the same molecule, the He/Con_2b in test [3] was 1.3 % of HeCon Ab (GpH7-A5/GpH7-B3/GpL16-k0 = 100).

The values are drawn from patent US20150344570A1 (published 2015).
